Legend:
CC(N)Cc1ccc(Cl)cc1 = assay: cells, lysate or membranes
CSc1ccc(CC(C)N)cc1 = assay: cells, lysate or membranes

human SERT (hSERT) (Homo sapiens)
Km (CC(N)Cc1ccc(Cl)cc1): 3.3 ± 0.9 µM | Km (CSc1ccc(CC(C)N)cc1): 6.1 ± 2.3 µM
